Source: the supplement of paper PMC7877785
± gives the uncertainty stated by the source.

Experiment: self-splicing fitness, log relative to wild type (ln ratio); higher = more splicing; Tetrahymena group I intron in knt gene, E. coli kanamycin selection, DiMSum; sequences stand for … in CUCUCU…GGAGGGAAAAGUUAUCAGGCAUGCACCUGGUAGCUAGUCUUUAAACCAAUAGAUUGCAUCGGUUUAAAAGGCAAGACCGUCAAAUUGCGGGAAAGGGGUCAACAGCCGUUCAGUACCAAGUCUCAGGGGAAACUUUGAGAUGGCCUUGCAAAGGGUAUGGUAAUAAGCUGACGGACAUGGUCCUAACCACGCAGCCAAGUCCUAAGUCAACAGAUCUUCUGUUGAUAUGGAUGCAGUUCACAGACUAAAUGUCGGUCGGGGAAGAUGUAUUCUUCUCAUAAGAUAUAGUCGGACCUCUCCUUAAUGGGAGCUAGCGGAUGAAGUGAUGCAACACUGGAGCCGCUGGGAACUAAUUUGUAUGCGAAAGUAUAUUGAUUAGUUUUGGAGUACUCGUGGUCG
Method in brief: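 The eight P1ex-region nucleotides of an intron in the knt kanamycin-resistance gene on pET-22b(+) were all randomised and the library put into E. coli BL21(DE3). Six replicate transformations were grown overnight at 37°C or 30°C on LB agar with or without 25 μg/mL kanamycin, together with 100 μg/mL carbenicillin, 50 μM IPTG and 0.2% rhamnose. Colonies were pooled and amplicon-sequenced on an Illumina HiSeq 2500. Fitness from DiMSum is the error-weighted combination of wild-type-normalised replicate fold changes, kanamycin over none.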

Row | Sequence | self-splicing fitness (ln) (30 °C) | self-splicing fitness (ln) (37 °C)
1 | CCCGAGCAAUAUUACGUCCC | -2.8 ± 0.24 | -2.3 ± 0.49
2 | CCCGAGCAAUAUUACGUGAC | – | -2.41 ± 0.3
3 | CCCGAGCAAUAUUACGUUAG | -3.6 ± 0.17 | -2.8 ± 0.22
4 | CCCGAGCAAUAUUACGUUUC | -3.44 ± 0.2 | -3.54 ± 0.24
5 | CCCUAGCAAUAUUACGAAGC | -2.97 ± 0.43 | -2.92 ± 0.27
6 | CCCUAGCAAUAUUACGACAA | -3.22 ± 0.35 | -2.1 ± 0.28
7 | CCCUAGCAAUAUUACGACGG | -2.7 ± 0.14 | -2.87 ± 0.34
8 | CCCUAGCAAUAUUACGACUA | -2.51 ± 0.29 | -2.21 ± 0.21
9 | CCCUAGCAAUAUUACGCCAU | -4.3 ± 0.42 | -2.43 ± 0.39
10 | CCCUAGCAAUAUUACGCGUA | -2.29 ± 0.31 | -0.911 ± 0.2
11 | CCCUAGCAAUAUUACGCGUC | -3.35 ± 0.14 | -3.21 ± 0.23
12 | CCCUAGCAAUAUUACGCUGG | -4.39 ± 0.27 | -2.89 ± 0.27
13 | CCCUAGCAAUAUUACGGAAU | -3.36 ± 0.37 | -1.82 ± 0.31
14 | CCCUAGCAAUAUUACGGCCU | -2.9 ± 0.21 | –
15 | CCCUAGCAAUAUUACGGCGG | -2.6 ± 0.14 | -2.42 ± 0.18
16 | CCCUAGCAAUAUUACGGCUG | -2.46 ± 0.28 | -1.38 ± 0.3
17 | CCCUAGCAAUAUUACGGUUC | -3.92 ± 0.16 | -2.04 ± 0.21
18 | CCCUAGCAAUAUUACGGUUG | -3.3 ± 0.14 | -2.04 ± 0.11
19 | CCCUAGCAAUAUUACGUAGU | -3.63 ± 0.18 | -2.51 ± 0.17
20 | CCCUAGCAAUAUUACGUGUG | -4.41 ± 0.24 | -2.43 ± 0.13
21 | CCCUAGCAAUAUUACGUUAA | -3.42 ± 0.18 | -3.16 ± 0.29
22 | CCGAAGCAAUAUUACGAAAC | -3.12 ± 0.31 | -2.46 ± 0.37
23 | CCGAAGCAAUAUUACGACGU | -1.03 ± 0.08 | 0.0423 ± 0.092
24 | CCGAAGCAAUAUUACGAGCU | -3.83 ± 0.27 | -2.47 ± 0.19
25 | CCGAAGCAAUAUUACGAGUC | -3.86 ± 0.21 | -2.53 ± 0.19
26 | CCGAAGCAAUAUUACGCAAG | -1.83 ± 0.17 | -1.12 ± 0.17
27 | CCGAAGCAAUAUUACGCAGG | -2.04 ± 0.12 | –

Row | Sequence | self-splicing fitness (ln) (30 °C) | self-splicing fitness (ln) (37 °C)
28 | CCGAAGCAAUAUUACGCCAU | -4.11 ± 0.27 | -3.25 ± 0.21
29 | CCGAAGCAAUAUUACGCGGG | -3.3 ± 0.19 | -2.62 ± 0.24
30 | CCGAAGCAAUAUUACGCUAG | -2.1 ± 0.18 | -1.87 ± 0.22
31 | CCGAAGCAAUAUUACGCUAU | – | -2.24 ± 0.25
32 | CCGAAGCAAUAUUACGCUCU | -3.24 ± 0.4 | –
33 | CCGAAGCAAUAUUACGCUGU | -3.74 ± 0.32 | -2.84 ± 0.4
34 | CCGAAGCAAUAUUACGGAAU | -3.74 ± 0.19 | -3 ± 0.24
35 | CCGAAGCAAUAUUACGGAGG | -4.7 ± 0.31 | -2.44 ± 0.21
36 | CCGAAGCAAUAUUACGGCCA | -2.76 ± 0.17 | -2.3 ± 0.18
37 | CCGAAGCAAUAUUACGGCUA | -2.89 ± 0.29 | -1.64 ± 0.24
38 | CCGAAGCAAUAUUACGGCUG | -1.53 ± 0.092 | -0.38 ± 0.11
39 | CCGAAGCAAUAUUACGGGUG | -0.732 ± 0.047 | -0.639 ± 0.061
40 | CCGAAGCAAUAUUACGGUAA | -1.62 ± 0.13 | -3.15 ± 0.23
41 | CCGAAGCAAUAUUACGGUUA | – | -2.08 ± 0.24
42 | CCGAAGCAAUAUUACGUACC | -3.47 ± 0.16 | -2.5 ± 0.21
43 | CCGAAGCAAUAUUACGUAGC | -3 ± 0.33 | –
44 | CCGAAGCAAUAUUACGUAUA | – | -2.51 ± 0.41
45 | CCGAAGCAAUAUUACGUCUA | -3.69 ± 0.35 | -2.25 ± 0.3
46 | CCGAAGCAAUAUUACGUUGC | -3.51 ± 0.21 | -2.66 ± 0.22
47 | CCGCAGCAAUAUUACGAAAA | -3.37 ± 0.21 | -2.39 ± 0.16
48 | CCGCAGCAAUAUUACGAACG | -0.44 ± 0.085 | 0.193 ± 0.1
49 | CCGCAGCAAUAUUACGACCA | -3.34 ± 0.25 | -1.95 ± 0.25
50 | CCGCAGCAAUAUUACGAGCU | -2.93 ± 0.27 | -3.37 ± 0.28
51 | CCGCAGCAAUAUUACGAUAC | -2.77 ± 0.28 | -2.19 ± 0.46
52 | CCGCAGCAAUAUUACGAUCG | 0.289 ± 0.083 | 0.186 ± 0.11
53 | CCGCAGCAAUAUUACGCCUU | -3.2 ± 0.21 | -2.08 ± 0.16
54 | CCGCAGCAAUAUUACGCGAU | -3.44 ± 0.14 | -3.44 ± 0.21

Row | Sequence | self-splicing fitness (ln) (30 °C) | self-splicing fitness (ln) (37 °C)
55 | CCGCAGCAAUAUUACGCGCC | -2.71 ± 0.25 | -2.02 ± 0.47
56 | CCGCAGCAAUAUUACGCGGA | -3.03 ± 0.29 | -3.11 ± 0.3
57 | CCGCAGCAAUAUUACGCGUG | -2.75 ± 0.15 | -2.38 ± 0.17
58 | CCGCAGCAAUAUUACGCUCG | -1.9 ± 0.07 | -1.41 ± 0.094
59 | CCGCAGCAAUAUUACGGAAA | -3.75 ± 0.3 | -3.29 ± 0.43
60 | CCGCAGCAAUAUUACGGCAC | -2.89 ± 0.21 | -2.91 ± 0.25
61 | CCGCAGCAAUAUUACGGGAU | -4.16 ± 0.33 | -1.82 ± 0.16
62 | CCGCAGCAAUAUUACGGGGG | -3.71 ± 0.18 | -3.2 ± 0.3
63 | CCGCAGCAAUAUUACGGGUA | -4.25 ± 0.42 | -2.44 ± 0.22
64 | CCGCAGCAAUAUUACGGUAG | -2.16 ± 0.086 | -1.11 ± 0.093
65 | CCGCAGCAAUAUUACGGUUU | -3.45 ± 0.14 | -2.86 ± 0.16
66 | CCGCAGCAAUAUUACGUAGA | -3.07 ± 0.17 | -1.37 ± 0.12
67 | CCGCAGCAAUAUUACGUCCC | – | -2.65 ± 0.49
68 | CCGCAGCAAUAUUACGUUCC | -3.27 ± 0.41 | -1.54 ± 0.43
69 | CCGCAGCAAUAUUACGUUGU | -3.23 ± 0.16 | -3.8 ± 0.26
70 | CCGCAGCAAUAUUACGUUUU | -3.13 ± 0.13 | -3.26 ± 0.2
71 | CCGGAGCAAUAUUACGAAGC | – | -2.8 ± 0.36
72 | CCGGAGCAAUAUUACGACUG | -0.64 ± 0.14 | -0.428 ± 0.22
73 | CCGGAGCAAUAUUACGAGUA | -3.34 ± 0.27 | -2 ± 0.26
74 | CCGGAGCAAUAUUACGAUCG | -0.502 ± 0.12 | 0.299 ± 0.16
75 | CCGGAGCAAUAUUACGCAAA | – | -2.55 ± 0.33
76 | CCGGAGCAAUAUUACGCCGG | – | -3.09 ± 0.28
77 | CCGGAGCAAUAUUACGCCUA | -2.12 ± 0.26 | -2.59 ± 0.29
78 | CCGGAGCAAUAUUACGCGAA | -3.59 ± 0.42 | -2.41 ± 0.36
79 | CCGGAGCAAUAUUACGCGGC | -3.5 ± 0.31 | -2.33 ± 0.26
